In data set [1] the test system is interaction between NR2A/2B and PSD-95. Kind of data set: In vivo binding assay (co-immunoprecipitation) from spinal cord homogenates of treated mice. More on the design: species or system mouse. Particulars: 8 mg/kg intraperitoneal. The protocol:
In Vitro and In Vivo Binding Assays. […] Membrane-bound proteins from the spinal lumbar enlargement segments were extracted as described previously (Tao, et al., 2003a). For in vitro binding experiments (GST pull-down), the solubilized membrane fraction and GST fusion peptide were first preincubated with different concentrations of Tat-PSD-95 PDZ2 at room temperature for 30 min. Then the membrane fraction was mixed with the GST fusion peptide at room temperature for 1 h. The resin was washed five times with washing buffer (PBS plus 500 mM NaCl and 0.1% Triton X-100) and then boiled in 1×SDS-PAGE sample buffer to elute the bound proteins. After being separated by electrophoresis, the proteins were detected by immunoblotting with anti-GST antibody (Santa Cruz Biotechnology, Santa Cruz, Calif.) and anti-NR2B antibody (Upstate Biotechnology, Lake Placid, N.Y.). For in vivo binding experiments (co-immunoprecipitation), 5 μg of the affinity-purified rabbit NR2A/2B antibody (Chemicon, Temecula, Calif.) was incubated with 100 μl of protein A-Sepharose slurry for 1 h, and the complex was spun down at 2000 rpm for 4 min. The solubilized membrane fraction (500 μg) from the different groups of treated mice as mentioned-above then was added to the Sepharose beads, and the mixture was incubated for 2-3 h at 4° C. The mixture was washed once with 1% Triton X-100 in immunoprecipitation buffer [containing (in mM): 137 sodium chloride, 2.7 potassium chloride, 4.3 disodium hydrogen phosphate, 1.4 potassium dihydrogen phosphate, 5 ethylene glycol tetraacetic acid, 1 sodium vanadate, 10 sodium pyrophosphate, 50 sodium fluoride, 0.1 phenylmethylsulfonyl fluoride, and 20 U/ml Trasylol], twice with 1% Triton X-100 in immunoprecipitation buffer plus 300 mM sodium chloride, and three times with immunoprecipitation buffer. The proteins were separated by SDS-PAGE and detected by NR2A/2B or PSD-95 antibody (Upstate Biotechnology, Lake Placid, N.Y.). As a positive control (input), 50 μg of the solubilized membrane fraction was loaded onto the gel. […]

A short description of data set [2]: In vivo CNS / spinal cord distribution of Tat fusion peptides after intraperitoneal injection (Western blot, immunohistochemistry). Set-up: species or system mouse. Particulars: mice; for delivery into lumbar spinal cord, Western blot: 4 h after intraperitoneal injection; for distribution in the spinal cord, immunohistochemical staining: after intraperitoneal injection; for delivery into cerebral cortex, hippocampus and lumbar spinal cord, Western blotting: 4 h after intraperitoneal injection (data not shown); for dose dependence of delivery into the spinal cord, Western blot: intraperitoneal 2, 4, 8 mg/kg. The procedure:
In Vivo Systemic Administration and Spinal Cord Distribution of Tat Fusion Peptides. Western blot analysis and immunohistochemistry were used to detect the spinal cord distribution of Tat fusion peptides after systemic administration. The purified fusion peptides at the indicated amounts were injected into mice intraperitoneally in 300 μl of PBS and 10% glycerol, as previously described (Cao, et al., 2002). The mice, assigned randomly to the experimental groups of 6-8, were given Tat-PSD-95 PDZ2 or control peptide (mutated Tat-PSD-95 PDZ2 or PSD-95 PDZ2 without Tat PTD) 4 h before sample collection. For Western blotting, lumbar spinal cord tissues were harvested, homogenized according to standard procedures, and centrifuged at 700×g for 15 min at 4° C. The extracted proteins were resolved by SDS-PAGE, electro-transferred to nitrocellulose membranes, and then immunoblotted with above-mentioned monoclonal anti-His antibody. For immunohistochemistry, sections from the spinal lumbar enlargement segments were fixed in 4% paraformaldehyde (in 0.1 M phosphate buffer, pH 7.4) for 10 min, and then incubated with the monoclonal anti-His antibody. Thereafter, the sections were rinsed with 0.01 M PBS, incubated with fluorescein isothiocyanate-conjugated anti-mouse IgG (1:80; Jackson ImmunoResearch Laboratories) for 1 h at 37° C., and rinsed again with PBS. The sections were imaged with confocal laser scanning microscopy at an excitation wavelength of 488 nm for fluorescein isothiocyanate.
The purified fusion peptides at the indicated amounts were injected intraperitoneally into mice in 300 μl of phosphate-buffered saline and 10% glycerol. The mice were given Tat-PSD-95 PDZ2 or control peptide (mutated Tat-PSD-95 PDZ2 or PSD-95 PDZ2 without Tat) 4 h before MAC measurement and righting reflex testing. All the animals were assigned randomly to experimental groups consisting of 6-8 animals each. Western blot analysis was then used to verify the CNS delivery of these fusion peptides after intraperitoneal injection.
Cerebral cortex, hippocampus, and lumbar spinal cord were harvested 4 h after intraperitoneal injection of the fusion peptides. Total proteins from these tissues were extracted. In brief, the tissues were removed and homogenized in homogenization buffer^18 (10 mM Tris-HCl, 5 mM MgCl2, 2 mM EGTA, 1 mM phenylmethylsulfonyl fluoride, […] leupeptin, 2 μM pepstatin A, and 320 mM sucrose, pH 7.4). The crude homogenates were centrifuged at 700×g for […] at 4° C. The pellets were rehomogenized and spun again at 700×g, and the supernatants were combined and diluted in resuspension buffer^18 (10 mM Tris-HCl, 5 mM MgCl2, 2 mM EGTA, 1 mM phenylmethylsulfonyl fluoride, 1 μM leupeptin, 2 μM pepstatin A, and 250 mM sucrose, pH 7.4). Next, the protein extracts were resolved by sodium dodecyl sulfate-polyacrylamide gel electrophoresis, electrotransferred to nitrocellulose membranes, and then immunoblotted with monoclonal anti-His antibody (Sigma, St. Louis, Mo.) diluted (1:1,000) in blocking solution containing 3% nonfat dry milk and 0.1% Tween-20 in Tris-HCl-buffered saline for 1 h at room temperature. After extensive washing, the membranes were incubated with horseradish peroxidase-conjugated anti-mouse immunoglobulin (Bio-Rad Laboratories, Hercules, Calif.) at a dilution of 1:3,000 for another 1 h. Specific proteins were detected by enhanced chemiluminescence (Amersham, Piscataway, N.J.). Tubulin served as a loading control and cerebral cortex was used for its detection.
Background: Immunoblotting shows a protein as a band on a membrane.

Entries after “also recorded” stand apart in the source; their conditions may differ.

B1: PSD-95 PDZ2: Control peptide containing the same sequences as Tat-PSD-95 PDZ2 but without Tat PTD (protein)
chain: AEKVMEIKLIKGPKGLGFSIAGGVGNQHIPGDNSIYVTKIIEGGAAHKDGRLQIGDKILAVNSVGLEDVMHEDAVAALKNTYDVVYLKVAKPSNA
Turning to B1, the “effect on interaction between NR2A/2B and PSD-95, co-immunoprecipitation” value (shortened to “effect”) in data set [1] was “neither mutated Tat-PSD-95 PDZ2 (8 mg/kg) nor PSD-95 PDZ2 (8 mg/kg) had an effect”. For the same molecule, the “delivery into lumbar spinal cord, Western blot” value (“delivery into lumbar spinal cord” below) in data set [2] (listed as PSD-95 PDZ2 without Tat) is “not detected”. In addition, the “distribution in the spinal cord, immunohistochemical staining” value in data set [2] is “not detected”.

B2: Tat-PSD-95 PDZ2: His-tagged fusion peptide: HIV Tat minimal transduction domain (residues 47-57) fused to the second PDZ domain of PSD-95 (protein)
chain: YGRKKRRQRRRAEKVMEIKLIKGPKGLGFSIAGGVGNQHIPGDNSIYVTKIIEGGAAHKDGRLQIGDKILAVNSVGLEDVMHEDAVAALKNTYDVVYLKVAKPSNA
With B2, the “effect” value in data set [1] is “markedly disrupted; also recorded: markedly blocked”. Besides, in data set [2], the “delivery into lumbar spinal cord” value is reported as “delivered into lumbar spinal cord”; the “delivery into cerebral cortex, hippocampus and lumbar spinal cord, Western blotting” value was “delivered into cerebral cortex, hippocampus and lumbar spinal cord”; the “distribution in the spinal cord, immunohistochemical staining” value is on record as “distributed in the spinal cord”; the “dose dependence of delivery into the spinal cord, Western blot” value is “dose-dependently delivered; also recorded: dose-dependent”. The “dose dependence of delivery into the spinal cord, Western blot” value in data set [2] (listed as Tat-P SD-95 PDZ2) is “dose-dependent”.

B3: mutated Tat-PSD-95 PDZ2: Control fusion peptide: Tat-PSD-95 PDZ2 with three sites critical for NMDAR/PSD-95 interaction mutated (K165T, L170R and H182L) (protein)
chain: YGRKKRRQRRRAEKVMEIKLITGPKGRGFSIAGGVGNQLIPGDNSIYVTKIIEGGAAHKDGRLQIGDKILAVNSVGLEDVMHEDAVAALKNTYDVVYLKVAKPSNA
Turning to B3, in data set [1], the “effect” value is listed as “no effect; also recorded: neither mutated Tat-PSD-95 PDZ2 (8 mg/kg) nor PSD-95 PDZ2 (8 mg/kg) had an effect”. In data set [2], the “delivery into lumbar spinal cord” value is given as “delivered into lumbar spinal cord”; the “delivery into cerebral cortex, hippocampus and lumbar spinal cord, Western blotting” value was “delivered into cerebral cortex, hippocampus and lumbar spinal cord”. Moreover, the “difference in PTD-mediated spinal delivery versus Tat-PSD-95 PDZ2” value in data set [2] (intraperitoneal injection, Western blot) is on record as “No significant difference”.

The values above are taken from patent publication US20100204100A1, “BIOLOGICAL AGENTS ACTIVE IN CENTRAL NERVOUS SYSTEM” (THE JOHNS HOPKINS UNIVERISTY, priority 2007, published 2010).
